T1: GST-MUPP1 PDZ domain 7 (Homo sapiens (Human)), O75970
T1 chain: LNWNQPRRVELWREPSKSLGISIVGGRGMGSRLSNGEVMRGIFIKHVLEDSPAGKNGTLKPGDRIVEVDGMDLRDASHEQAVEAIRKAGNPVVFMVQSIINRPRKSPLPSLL

T2: GST-AIPC PDZ domain 1 (Homo sapiens (Human)), O15018
T2 chain: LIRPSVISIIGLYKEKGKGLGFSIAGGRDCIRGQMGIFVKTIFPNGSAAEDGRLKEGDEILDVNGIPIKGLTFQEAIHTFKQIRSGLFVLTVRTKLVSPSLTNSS

T3: GST-HEMBA 1003117 PDZ domain 1 (Homo sapiens (Human)), Q96JH8
T3 chain: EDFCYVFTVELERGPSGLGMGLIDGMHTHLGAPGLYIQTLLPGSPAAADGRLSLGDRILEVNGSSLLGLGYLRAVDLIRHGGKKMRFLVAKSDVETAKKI

T4: GST-MINT1 PDZ domains 1, 2, Q02410
T4 chain: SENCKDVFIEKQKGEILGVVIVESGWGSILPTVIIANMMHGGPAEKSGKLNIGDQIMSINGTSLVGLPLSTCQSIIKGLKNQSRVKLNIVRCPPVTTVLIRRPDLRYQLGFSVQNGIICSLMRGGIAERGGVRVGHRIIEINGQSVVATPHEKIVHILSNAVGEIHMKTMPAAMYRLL

T5: GST-MUPP1 PDZ domain 3 (Homo sapiens (Human)), O75970
T5 chain: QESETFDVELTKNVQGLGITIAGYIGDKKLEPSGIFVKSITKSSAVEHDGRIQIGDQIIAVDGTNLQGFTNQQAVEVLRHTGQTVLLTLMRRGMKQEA

T6: GST-MINT1 PDZ domain 2 (Mus musculus (Mouse)), B2RUJ5
T6 chain: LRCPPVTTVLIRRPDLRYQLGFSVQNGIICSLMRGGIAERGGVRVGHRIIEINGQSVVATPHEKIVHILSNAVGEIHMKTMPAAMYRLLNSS

T7: GST-MUPP1 PDZ domain 11 (Homo sapiens (Human)), O75970
T7 chain: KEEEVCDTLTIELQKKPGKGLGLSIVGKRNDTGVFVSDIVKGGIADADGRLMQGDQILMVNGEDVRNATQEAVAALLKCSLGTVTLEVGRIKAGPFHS

T8: GST-SYNTENIN PDZ domain 1 (Homo sapiens (Human)), O00560
T8 chain: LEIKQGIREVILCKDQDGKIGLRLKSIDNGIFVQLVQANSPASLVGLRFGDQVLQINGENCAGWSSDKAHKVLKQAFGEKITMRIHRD

T9: GST-PTPL1 PDZ domain 4 (Homo sapiens (Human)), Q12923
T9 chain: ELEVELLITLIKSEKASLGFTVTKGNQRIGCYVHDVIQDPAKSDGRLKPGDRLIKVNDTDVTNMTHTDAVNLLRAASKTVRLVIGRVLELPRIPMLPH

T10: GST-FLJ 10324 PDZ domain 1 [GST: P08515]
T10 chain: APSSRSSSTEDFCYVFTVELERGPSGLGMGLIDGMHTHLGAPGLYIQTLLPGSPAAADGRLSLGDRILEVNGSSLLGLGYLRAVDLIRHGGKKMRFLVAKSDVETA

T11: GST-MINT1 PDZ domain 1 (Mus musculus (Mouse)), B2RUJ5
T11 chain: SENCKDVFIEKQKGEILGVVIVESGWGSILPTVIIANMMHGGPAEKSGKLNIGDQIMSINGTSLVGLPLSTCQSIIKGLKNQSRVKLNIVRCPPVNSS

T12: GST-ZO-3 PDZ domain 3 (Homo sapiens (Human)), O95049
T12 chain: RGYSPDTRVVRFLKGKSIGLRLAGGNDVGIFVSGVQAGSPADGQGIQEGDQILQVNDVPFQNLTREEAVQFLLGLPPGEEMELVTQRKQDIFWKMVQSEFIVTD

T13: GST-MUPP1 PDZ domain 9 (Homo sapiens (Human)), O75970
T13 chain: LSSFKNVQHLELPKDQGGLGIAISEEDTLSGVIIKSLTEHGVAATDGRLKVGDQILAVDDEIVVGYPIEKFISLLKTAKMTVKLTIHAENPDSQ

T14: GST-KIAA0807(S) PDZ domain 1 (Homo sapiens (Human)), Q6P0Q8
T14 chain: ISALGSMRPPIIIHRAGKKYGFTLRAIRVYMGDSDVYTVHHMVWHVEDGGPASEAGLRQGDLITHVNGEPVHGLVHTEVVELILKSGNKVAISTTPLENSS

T15: GST-MUPP1 PDZ domain 2 (Homo sapiens (Human)), O75970
T15 chain: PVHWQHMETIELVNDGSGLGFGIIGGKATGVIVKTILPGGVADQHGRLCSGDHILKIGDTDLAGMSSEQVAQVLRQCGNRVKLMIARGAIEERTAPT

T16: GST-KIAA0382 PDZ domain 1 (Canis lupus familiaris (Dog) (Canis familiaris)), A0A8I3
T16 chain: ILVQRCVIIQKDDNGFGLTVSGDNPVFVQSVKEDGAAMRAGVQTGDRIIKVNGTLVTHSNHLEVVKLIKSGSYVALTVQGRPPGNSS

T17: GST-DVL2 PDZ domain 1 (Homo sapiens (Human)), O14641
T17 chain: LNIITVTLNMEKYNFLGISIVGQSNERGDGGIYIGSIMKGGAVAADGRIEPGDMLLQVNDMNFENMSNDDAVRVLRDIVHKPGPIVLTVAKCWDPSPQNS

T18: GST-KIAA1719 PDZ domain 3 (Homo sapiens (Human)), Q9C0E4
T18 chain: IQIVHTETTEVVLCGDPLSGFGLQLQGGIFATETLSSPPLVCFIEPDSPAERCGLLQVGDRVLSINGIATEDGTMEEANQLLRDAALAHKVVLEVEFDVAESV

T19: GST-X-11 beta PDZ domain 2 (Rattus norvegicus (Rat)), O35431
T19 chain: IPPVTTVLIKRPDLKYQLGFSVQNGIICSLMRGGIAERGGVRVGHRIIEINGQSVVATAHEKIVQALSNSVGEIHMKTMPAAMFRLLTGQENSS

T20: GST-GRIP 1 PDZ domain 6 (Mus musculus (Mouse)), Q925T6
T20 chain: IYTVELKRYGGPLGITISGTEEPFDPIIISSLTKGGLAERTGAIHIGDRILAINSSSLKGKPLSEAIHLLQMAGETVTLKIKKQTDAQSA

T21: GST-KIAA0973 PDZ domain 1 (Homo sapiens (Human)), Q9Y2H9
T21 chain: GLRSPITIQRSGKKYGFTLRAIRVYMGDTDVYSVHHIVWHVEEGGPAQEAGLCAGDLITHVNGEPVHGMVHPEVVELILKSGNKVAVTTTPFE

T22: GST-APXL-1 PDZ domain 1 (Homo sapiens (Human)), Q13796
T22 chain: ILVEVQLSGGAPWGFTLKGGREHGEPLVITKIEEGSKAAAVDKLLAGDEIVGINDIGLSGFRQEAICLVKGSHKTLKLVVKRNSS

T23: GST-KIAA1719 PDZ domain 6 (Homo sapiens (Human)), Q9C0E4
T23 chain: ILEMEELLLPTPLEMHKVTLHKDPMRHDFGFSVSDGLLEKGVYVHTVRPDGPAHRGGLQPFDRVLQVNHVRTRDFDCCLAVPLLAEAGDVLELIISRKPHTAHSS

T24: GST-Shank 1 PDZ domain 1 (Homo sapiens (Human)), Q9UPX8
T24 chain: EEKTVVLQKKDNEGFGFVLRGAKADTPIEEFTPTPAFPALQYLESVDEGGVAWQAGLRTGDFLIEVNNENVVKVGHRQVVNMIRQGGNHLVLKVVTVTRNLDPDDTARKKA

T25: GST-LIM Protein PDZ domain 1 (Homo sapiens (Human)), Q96HC4
T25 chain: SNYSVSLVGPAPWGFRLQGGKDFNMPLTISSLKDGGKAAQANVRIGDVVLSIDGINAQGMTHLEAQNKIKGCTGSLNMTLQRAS

T26: GST-AF6 PDZ domain 1 (Homo sapiens (Human)), P55196
T26 chain: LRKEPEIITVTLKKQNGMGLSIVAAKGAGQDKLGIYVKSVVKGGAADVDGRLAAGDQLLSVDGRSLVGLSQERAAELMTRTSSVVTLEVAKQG

T27: GST-KIAA0561 PDZ domain 1 (Homo sapiens (Human)), O60307
T27 chain: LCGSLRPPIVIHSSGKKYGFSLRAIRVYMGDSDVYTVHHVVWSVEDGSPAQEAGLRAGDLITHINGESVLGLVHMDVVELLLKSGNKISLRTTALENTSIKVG

T28: GST-ENIGMA PDZ domain 1 (Homo sapiens (Human)), Q9NR12
T28 chain: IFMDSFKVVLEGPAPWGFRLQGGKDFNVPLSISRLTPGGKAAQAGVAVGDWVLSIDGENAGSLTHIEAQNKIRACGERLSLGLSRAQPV

T29: GST-LIM-RIL PDZ domain 1 (Homo sapiens (Human)), P50479
T29 chain: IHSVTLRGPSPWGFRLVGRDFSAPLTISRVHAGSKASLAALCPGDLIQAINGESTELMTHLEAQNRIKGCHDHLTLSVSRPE


Columns and labels:
Test in all cases: G' assay
[1] = molecular target: T1, GST-MUPP1 PDZ domain 7 (Homo sapiens …)
[2] = molecular target: T2, GST-AIPC PDZ domain 1 (Homo sapiens …)
[3] = molecular target: GST-KIAA1222 PDZ domain 1 (Rattus norvegicus (Rat)), O35867
Sequence of GST-KIAA1222 PDZ domain 1 (Rattus norvegicus (Rat)), O35867 (O35867 499-598, tags or fused parts left off): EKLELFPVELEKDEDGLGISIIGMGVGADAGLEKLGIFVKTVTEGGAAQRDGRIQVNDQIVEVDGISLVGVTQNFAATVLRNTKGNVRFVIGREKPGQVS

[4] = molecular target: T3, GST-HEMBA 1003117 PDZ domain 1 (Homo …)
[5] = molecular target: GST-PAR3 PDZ domain 3 (Homo sapiens (Human)), Q8TEW0
Sequence of GST-PAR3 PDZ domain 3 (Homo sapiens (Human)), Q8TEW0 (Q8TEW0 579-681): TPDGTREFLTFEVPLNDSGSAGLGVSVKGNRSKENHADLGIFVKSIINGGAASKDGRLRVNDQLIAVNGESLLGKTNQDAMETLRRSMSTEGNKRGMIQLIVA

[6] = molecular target: T4, GST-MINT1 PDZ domains 1, 2, Q02410
[7] = molecular target: T5, GST-MUPP1 PDZ domain 3 (Homo sapiens …)
[8] = molecular target: T6, GST-MINT1 PDZ domain 2 (Mus musculus …)
[9] = molecular target: T7, GST-MUPP1 PDZ domain 11 (Homo sapiens …)
[10] = molecular target: T8, GST-SYNTENIN PDZ domain 1 (Homo sapiens …)
[11] = molecular target: T9, GST-PTPL1 PDZ domain 4 (Homo sapiens …)
[12] = molecular target: T10, GST-FLJ 10324 PDZ domain 1 [GST: P08515]
[13] = molecular target: GST-KIAA807 [GST: P08515]
Sequence of GST-KIAA807 [GST: P08515] (P08515 whole entry, the tested form may be a part): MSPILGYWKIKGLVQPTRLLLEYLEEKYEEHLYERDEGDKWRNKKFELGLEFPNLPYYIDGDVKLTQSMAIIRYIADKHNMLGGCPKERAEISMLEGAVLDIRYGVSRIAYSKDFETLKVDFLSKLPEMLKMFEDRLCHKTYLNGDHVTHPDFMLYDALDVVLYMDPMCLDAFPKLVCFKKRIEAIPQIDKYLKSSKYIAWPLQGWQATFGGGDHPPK

[14] = molecular target: T11, GST-MINT1 PDZ domain 1 (Mus musculus …)
[15] = molecular target: T12, GST-ZO-3 PDZ domain 3 (Homo sapiens …)
[16] = molecular target: T13, GST-MUPP1 PDZ domain 9 (Homo sapiens …)
[17] = molecular target: T14, GST-KIAA0807(S) PDZ domain 1 (Homo …)
[18] = molecular target: T15, GST-MUPP1 PDZ domain 2 (Homo sapiens …)
[19] = molecular target: T16, GST-KIAA0382 PDZ domain 1 (Canis lupus …)
[20] = molecular target: T17, GST-DVL2 PDZ domain 1 (Homo sapiens …)
[21] = molecular target: T18, GST-KIAA1719 PDZ domain 3 (Homo sapiens …)
[22] = molecular target: T19, GST-X-11 beta PDZ domain 2 (Rattus …)
[23] = molecular target: GST-KIAA1634 PDZ domain 1 (Homo sapiens (Human)), Q5TCQ9
Sequence of GST-KIAA1634 PDZ domain 1 (Homo sapiens (Human)), Q5TCQ9 (Q5TCQ9 401-502): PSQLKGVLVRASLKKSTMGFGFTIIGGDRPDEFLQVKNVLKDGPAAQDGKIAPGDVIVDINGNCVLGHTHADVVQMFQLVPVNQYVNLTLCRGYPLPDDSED

[24] = molecular target: T20, GST-GRIP 1 PDZ domain 6 (Mus musculus …)
[25] = molecular target: T21, GST-KIAA0973 PDZ domain 1 (Homo sapiens …)
[26] = molecular target: T22, GST-APXL-1 PDZ domain 1 (Homo sapiens …)
[27] = molecular target: GST-BAI-1 Associated Protein PDZ domain 2 (Mus musculus (Mouse)), Q6RHR9
Sequence of GST-BAI-1 Associated Protein PDZ domain 2 (Mus musculus (Mouse)), Q6RHR9 (Q6RHR9 455-558): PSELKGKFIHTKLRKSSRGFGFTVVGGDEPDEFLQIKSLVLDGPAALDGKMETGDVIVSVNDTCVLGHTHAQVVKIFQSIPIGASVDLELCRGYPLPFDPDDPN

[28] = molecular target: T23, GST-KIAA1719 PDZ domain 6 (Homo sapiens …)
[29] = molecular target: T24, GST-Shank 1 PDZ domain 1 (Homo sapiens …)
[30] = molecular target: GST-KIAA0316 PDZ domain 1 (Homo sapiens (Human)), Q14CM0
Sequence of GST-KIAA0316 PDZ domain 1 (Homo sapiens (Human)), Q14CM0 (Q14CM0 72-159): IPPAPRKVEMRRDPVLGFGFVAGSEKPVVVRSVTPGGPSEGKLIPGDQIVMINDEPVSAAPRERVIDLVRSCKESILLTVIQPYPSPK

[31] = molecular target: T25, GST-LIM Protein PDZ domain 1 (Homo …)
[32] = molecular target: T26, GST-AF6 PDZ domain 1 (Homo sapiens …)
[33] = molecular target: T27, GST-KIAA0561 PDZ domain 1 (Homo sapiens …)
[34] = molecular target: T28, GST-ENIGMA PDZ domain 1 (Homo sapiens …)
[35] = molecular target: T29, GST-LIM-RIL PDZ domain 1 (Homo sapiens …)
Further: key of the grades not given here.

Classification [5] | Classification [6] | Classification [7] | Classification [8] | Classification [9] | Classification [12] | Classification [13] | Classification [17] | Classification [20] | Classification [25] | Classification [26] | Classification [31] | Classification [32] | Binder | other results
5 A450 class | 5 A450 class | 1 A450 class | 1 A450 class | 5 A450 class | 4 A450 class | 3 A450 class | 4 A450 class | 2 A450 class |  |  |  |  | KTMPAAMFRLLTGQETPLYI (modifications not checked) [MINT-2] | Classification [1]: 1 A450 class; Classification [2]: 1 A450 class; Classification [3]: 1 A450 class; Classification [4]: 3 A450 class; Classification [10]: 2 A450 class; Classification [11]: 4 A450 class; Classification [14]: 2 A450 class; Classification [15]: 1 A450 class; Classification [16]: 1 A450 class; Classification [18]: 1 A450 class; Classification [19]: 1 A450 class
 | 1 A450 class |  | 2 A450 class |  | 1 A450 class |  | 5 A450 class | 2 A450 class | 1 A450 class | 2 A450 class |  |  | ALVLIAFCIIRRRPSAYQAL (modifications not checked) [CD68] | Classification [21]: 1 A450 class; Classification [22]: 1 A450 class; Classification [23]: 2 A450 class; Classification [24]: 1 A450 class; Classification [27]: 3 A450 class; Classification [28]: 1 A450 class; Classification [29]: 1 A450 class
1 A450 class | 2 A450 class | 1 A450 class | 2 A450 class | 2 A450 class |  | 1 A450 class | 1 A450 class | 1 A450 class | 2 A450 class |  | 1 A450 class | 1 A450 class | KTMPAATYRLLTGQEQPVYL (modifications not checked) [MINT-3] | Classification [30]: 2 A450 class; Classification [33]: 1 A450 class
 |  |  |  |  |  |  |  |  |  | 1 A450 class | 2 A450 class | 2 A450 class | YSATYSELEDPGEMSPPIDL (modifications not checked) [FceRlb] | Classification [34]: 2 A450 class; Classification [35]: 1 A450 class
